Measurements published in patent publication US20130130922.
Like-named read-outs stand apart in the source and are kept apart here.

Key:
[1] = molecular target: M.SssI Q142A/N370A Q142A,N370A (Spiroplasma sp.?) (UniProt P15840); settings: Ado-11-amine 160-320 uM, no Mg, MTase:DNA 3.6:1, Hin6I protection
[2] = molecular target: M.SssI (original) (Spiroplasma sp.?) (UniProt P15840); settings: transalkylation ~2 orders of magnitude lower than double mutant; AdoMet analogs; DNA for this comparison not explicitly stated
Chain of M.SssI (original) (Spiroplasma sp.?) (P15840 whole entry): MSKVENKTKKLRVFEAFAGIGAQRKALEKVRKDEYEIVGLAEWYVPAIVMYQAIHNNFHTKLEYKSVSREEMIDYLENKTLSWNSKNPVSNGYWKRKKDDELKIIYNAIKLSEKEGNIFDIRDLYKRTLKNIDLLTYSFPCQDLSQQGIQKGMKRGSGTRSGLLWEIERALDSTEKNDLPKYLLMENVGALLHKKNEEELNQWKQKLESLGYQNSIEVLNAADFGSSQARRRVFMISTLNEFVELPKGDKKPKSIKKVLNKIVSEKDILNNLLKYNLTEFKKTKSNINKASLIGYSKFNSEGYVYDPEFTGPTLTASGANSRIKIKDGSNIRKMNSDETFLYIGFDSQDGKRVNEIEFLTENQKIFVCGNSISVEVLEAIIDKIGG

[3] = molecular target: M.SssI Q142A/N370A Q142A,N370A (Spiroplasma sp.?) (UniProt P15840); settings: Ado-6-amine 40 uM, Hin6I protection
[4] = molecular target: M.SssI Q142A/N370A Q142A,N370A (Spiroplasma sp.?) (UniProt P15840)
[5] = molecular target: T1, M.HpaII (original) (UniProt P15446); settings: ~2 orders of magnitude lower transalkylation than double mutant
T1 sequence: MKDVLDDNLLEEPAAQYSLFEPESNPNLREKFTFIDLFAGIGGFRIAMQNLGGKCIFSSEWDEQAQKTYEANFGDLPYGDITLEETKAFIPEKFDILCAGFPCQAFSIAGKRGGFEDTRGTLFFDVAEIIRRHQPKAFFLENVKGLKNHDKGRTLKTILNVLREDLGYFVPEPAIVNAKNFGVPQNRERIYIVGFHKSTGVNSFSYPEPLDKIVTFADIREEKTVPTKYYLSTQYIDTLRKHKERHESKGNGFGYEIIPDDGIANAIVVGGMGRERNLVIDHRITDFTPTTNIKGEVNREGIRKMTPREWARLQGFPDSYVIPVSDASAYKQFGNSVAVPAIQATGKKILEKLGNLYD

Chain of M.SssI Q142A/N370A Q142A,N370A (Spiroplasma sp.?) (P15840 whole entry Q142A/N370A): as the sequence (P15840 whole entry) above, with Q142A, N370A counted along it

## 1343 bp DNA fragment with 18 SssI sites
[1]
  activity: 50 % protected
[2]
  binding signal (fold of Q142A/N370A): 0.01
[3]; 10 mM MgCl2, MTase:DNA 2:1, 37 C 2 h
  activity: 30 % protected
[3]; no MgCl2, MTase:DNA 2:1, 37 C 2 h
  activity: 70 % protected

## Control-Sss nonspecific fragment (no target sites)
[4]; nonspecific probe, same conditions
  activity: < 1 % recovered

## Control-Sss specific fragment (two SssI sites)
[4]; Ado-6-amine 50 uM, 1450 nM enzyme, 37 C 30 min, with human genomic DNA
  activity: 80 % recovered

## DNA with CCGG sites (unspecified)
[5]
  binding signal (fold of Q104A/N335A): 0.01
